The record followed here is the supplement of paper PMC3353916.

± gives the standard deviation of the averaged measurements.

In this series the test system is Sindbis virus TE/5'2J-GFP. The experiment in a line: percent infected (GFP+ in RFP+ ISG-expressing cells); higher = more infection (less antiviral activity). How it is done: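 Confirmatory testing of 87 ISGs. Triplicate wells of BHK/HA-Zeo (control) or BHK/NZAP-Zeo (ZAP) cells were transduced with lentiviruses co-expressing a human ISG plus TagRFP, then infected 48 h later with SINV TE/5'2J-GFP (moi 5). The % GFP+ cells among RFP+ cells was measured by flow cytometry at 8 h post infection. Fluc lentivirus served as control. Three independent experiments.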

[1] abbreviates: experiment: confirmatory screen 1, BHK/HA-Zeo (control).
Where [2] appears, read: experiment: confirmatory screen 1, BHK/NZAP-Zeo (ZAP).
Setting [3] is: experiment: confirmatory screen 2, BHK/HA-Zeo (control).
[4] abbreviates: experiment: confirmatory screen 2, BHK/NZAP-Zeo (ZAP).
Setting [5] is: experiment: confirmatory screen 3, BHK/HA-Zeo (control).
Setting [6] is: experiment: confirmatory screen 3, BHK/NZAP-Zeo (ZAP).
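Further: Interferon-defective BHK-21 derivatives, ZAP line overexpressing the rat ZAP N-terminal zinc finger domain fused to Zeocin resistance, GFP scored within live singlet TagRFP+ cells.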

With “MAGPERWGPLLLCLLQAAPGRPRLAPPQNVTLLSQNFSVYLTWLPGLGNPQDVTYFVAYQSSPTRRRWREVEECAGTKELLCSMMCLKKQDLYNKFKGRVRTVSPSSKSPWVESEYLDYLFEVEPAPPVLVLTQTEEILSANATYQLPPCMPPLDLKYEVAFWKEGAGNKTLFPVTPHGQPVQITLQPAASEHHCLSARTIYTFSVPKYSKFSKPTCFLLEVPEANWAFLVLPSLLILLLVIAAGGVIWKTLMGNPWFQRAKMPRALDFSGHTHPVATFQPSRPESVNDLFLCPQKELTRGVRPTPRVRAPATQQTRWKKDLAEDEEEEDEEDTEDGVSFQPYIEPPSFLGQEHQAPGHSEAGGVDSGRPRAPLVPSEGSSAWDSSDRSWASTVDSSWDRAGSSGYLAEKGPGQGPGGDGHQESLPPPEFSKDSGFLEELPEDNLSSWATWGTLPPEPNLVPGGPPVSLQTLTFCWESSPEEEEEARESEIEDSDAGSWGAESTQRTEDRGRTLGHYMAR [IL28RA]”, the percent infected by setting is: under setting [1], 11.9 ± 5.4%; under setting [2], 1.35 ± 0.22%; under setting [3], 33 ± 1.4%; under setting [4], 11.4 ± 0.84%; under setting [5], 21.4 ± 1.5%; under setting [6], 8.02 ± 0.72%.
For “MNMTQARVLVAAVVGLVAVLLYASIHKIEEGHLAVYYRGGALLTSPSGPGYHIMLPFITTFRSVQTTLQTDEVKNVPCGTSGGVMIYIDRIEVVNMLAPYAVFDIVRNYTADYDKTLIFNKIHHELNQFCSAHTLQEVYIELFDQIDENLKQALQKDLNLMAPGLTIQAVRVTKPKIPEAIRRNFELMEAEKTKLLIAAQKQKVVEKEAETERKKAVIEAEKIAQVAKIRFQQKVMEKETEKRISEIEDAAFLAREKAKADAEYYAAHKYATSNKHKLTPEYLELKKYQAIASNSKIYFGSNIPNMFVDSSCALKYSDIRTGRESSLPSKEALEPSGENVIQNKESTG [ERLIN1]”, the percent infected is, setting by setting: under setting [1], 94.6 ± 1.8%; under setting [2], 79.2 ± 1.4%; under setting [3], 95.84 ± 0.41%; under setting [4], 94.53 ± 0.57%; under setting [5], 91.74 ± 0.47%; under setting [6], 91.63 ± 0.7%.
Substance “MEKGPVRAPAEKPRGARCSNGFPERDPPRPGPSRPAEKPPRPEAKSAQPADGWKGERPRSEEDNELNLPNLAAAYSSILSSLGENPQRQGLLKTPWRAASAMQFFTKGYQETISDVLNDAIFDEDHDEMVIVKDIDMFSMCEHHLVPFVGKVHIGYLPNKQVLGLSKLARIVEIYSRRLQVQERLTKQIAVAITEALRPAGVGVVVEATHMCMVMRGVQKMNSKTVTSTMLGVFREDPKTREEFLTLIRS [GCH1]” yielded a percent infected under setting [1] of 95.976 ± 0.021%; a percent infected under setting [2] of 74 ± 2%; a percent infected under setting [3] of 95.09 ± 0.34%; a percent infected under setting [4] of 93.4 ± 1.6%; a percent infected under setting [5] of 92.6 ± 0.98%; a percent infected under setting [6] of 92.19 ± 0.15%.
For “MDAPHSKAALDSINELPENILLELFTHVPARQLLLNCRLVCSLWRDLIDLMTLWKRKCLREGFITKDWDQPVADWKIFYFLRSLHRNLLRNPCAEEDMFAWQIDFNGGDRWKVESLPGAHGTDFPDPKVKKYFVTSYEMCLKSQLVDLVAEGYWEELLDTFRPDIVVKDWFAARADCGCTYQLKVQLASADYFVLASFEPPPVTIQQWNNATWTEVSYTFSDYPRGVRYILFQHGGRDTQYWAGWYGPRVTNSSIVVSPKMTRNQASSEAQPGQKHGQEEAAQSPYRAVVQIF [FBXO6]”, the percent infected runs as follows: under setting [1], 95.42 ± 0.3%; under setting [2], 65.4 ± 1.8%; under setting [3], 94.14 ± 0.54%; under setting [4], 94.48 ± 0.2%; under setting [5], 90.9 ± 1.1%; under setting [6], 91.46 ± 0.7%.
“MAGIELERCQQQANEVTEIMRNNFGKVLERGVKLAELQQRSDQLLDMSSTFNKTTQNLAQKKCWENIRYRICVGLVVVGVLLIILIVLLVVFLPQSSDSSSAPRTQDAGIASGPGN [VAMP5]”: the percent infected reads like this: under setting [1], 97.4 ± 0.76%; under setting [2], 78.6 ± 3.2%; under setting [3], 96.57 ± 0.3%; under setting [4], 94.74 ± 0.23%; under setting [5], 93.95 ± 0.59%; under setting [6], 93.52 ± 0.17%.
For the substance “MMFRDQVGVLAGWFKGWNECEQTVALLSLLKRVSQTQARFLQLCLEHSLADCAELHVLEREANSPGIINQWQQESKDKVISLLLTHLPLLKPGNLDAKVEYMKLLPKILAHSIEHNQHIEESRQLLSYALIHPATSLEDRSALAMWLNHLEDRTSTSFGGQNRGRSDSVDYGQTHYYHQRQNSDDKLNGWQNSRDSGICINASNWQDKSMGCENGHVPLYSSSSVPTTINTIGTSTSTILSGQAHHSPLKRSVSLTPPMNVPNQPLGHGWMSHEDLRARGPQCLPSDHAPLSPQSSVASSGSGGSEHLEDQTTARNTFQEEGSGMKDVPAWLKSLRLHKYAALFSQMTYEEMMALTECQLEAQNVTKGARHKIVISIQKLKERQNLLKSLERDIIEGGSLRIPLQELHQMILTPIKAYSSPSTTPEARRREPQAPRQPSLMGPESQSPDCKDGAAATGATATPSAGASGGLQPHQLSSCDGELAVAPLPEGDLPGQFTRVMGKVCTQLLVSRPDEENISSYLQLIDKCLIHEAFTETQKKRLLSWKQQVQKLFRSFPRKTLLDISGYRQQRNRGFGQSNSLPTAGSVGGGMGRRNPRQYQIPSRNVPSARLGLLGTSGFVSSNQRNTTATPTIMKQGRQNLWFANPGGSNSMPSRTHSSVQRTRSLPVHTSPQNMLMFQQPEFQLPVTEPDINNRLESLCLSMTEHALGDGVDRTSTI [SAMD4A]”, the percent infected reads like this: under setting [1], 80.4 ± 0.93%; under setting [2], 12.5 ± 0.52%; under setting [3], 92.98 ± 0.71%; under setting [4], 93.39 ± 0.29%; under setting [5], 83.1 ± 1.3%; under setting [6], 84.55 ± 0.77%.
For the substance TIMP1, the percent infected reads like this: under setting [1], 94.88 ± 0.13%; under setting [2], 66.4 ± 2.3%; under setting [3], 94.66 ± 0.28%; under setting [4], 93.37 ± 0.42%; under setting [5], 90.3 ± 1.8%; under setting [6], 92.63 ± 0.18%.
For “MRSRLLLSVAHLPTIRETTEEMLLGGPGQEPPPSPSLDDYVRSISRLAQPTSVLDKATAQGQPRPPHRPAQACRKGRPAVSLRDITARFSGQQPTLPMADTVDPLDWLFGESQEKQPSQRDLPRRTGPSAGLWGPHRQMDSSKPMGAPRGRLCEARMPGHSLARPPQDGQQSSDLRSWTFGQSAQAMASRHRPRPSSVLRTLYSHLPVIHEL [C10orf10]”, the percent infected under setting [1] was 94.8 ± 1.7%; the percent infected under setting [2] was 63.9 ± 6.1%; the percent infected under setting [3] was determined as 95.247 ± 0.086%; the percent infected under setting [4] turned out to be 94.42 ± 0.28%; the percent infected under setting [5] is 94.16 ± 0.87%; the percent infected under setting [6] is 92.8 ± 0.27%.
With “MKKSGVLFLLGIILLVLIGVQGTPVVRKGRCSCISTNQGTIHLQSLKDLKQFAPSPSCEKIEIIATLKNGVQTCLNPDSADVKELIKKWEKQVSQKKKQKNGKKHQKKKVLKVRKSQRSRQKKTT [CXCL9]”, the percent infected came out at 61.9 ± 6.1% under setting [1]; 44.7 ± 2.9% under setting [2]; 88.7 ± 2.5% under setting [3]; 91.55 ± 0.18% under setting [4]; 83.1 ± 1.5% under setting [5]; 82 ± 1.1% under setting [6].
Turning to “MMAQSKANGSHYALTAIGLGMLVLGVIMAMWNLVPGFSAAEKPTAQGSNKTEVGGGILKSKTFSVAYVLVGAGVMLLLLSICLSIRDKRKQRQGEDLAHVQHPTGAGPHAQEEDSQEEEEEDEEAASRYYVPSYEEVMNTNYSEARGEEQNPRLSISLPSYESLTGLDETTPTSTRADVEASPGNPPDRQNSKLAKRLKPLKVRRIKSEKLHLKDFRINLPDKNVPPPSIEPLTPPPQYDEVQEKAPDTRPPD [TMEM51]”, the percent infected runs as follows: under setting [1], 94.9 ± 1.4%; under setting [2], 61.1 ± 4.6%; under setting [3], 95.13 ± 0.15%; under setting [4], 94.94 ± 0.49%; under setting [5], 93.31 ± 0.41%; under setting [6], 92.77 ± 0.37%.
Take “MDENNGLLLLELNPPNPWDLQPRSPEELAFGEVQITYLTHACMDLKLGDKRMVFDPWLIGPAFARGWWLLHEPPSDWLERLCQADLIYISHLHSDHLSYPTLKKLAGRRPDIPIYVGNTERPVFWNLNQSGVQLTNINVVPFGIWQQVDKNLRFMILMDGVHPEMDTCIIVEYKGHKILNIVDCTRPNGGRLPMKVALMMSDFAGGASGFPMTFSGGKFTEEWKAQFIKTERKKLLNYKARLVKNLQPRIYCPFAGYFVESHPSDKYIKETNTKNDPNELNNLIKKNSDVITWTPRPGATLDLGRMLKDRTDSKGIIEPPEGTKIYKDSWDFEPYLEILNAALGDEIFLHSSWIKEYFTWAGFKDYNLVVRMIETDEDFNPFPGGYDYLVDFLDLSFPKERPQREHPYEEIHSRVDVIRHVVKNGLLWDELYIGFQTRLQRDPDIYHHLFWNHFQIKLPLTPPNWKSFLMCCEQNGPVILQFSTERTNEPNRNKFSVENKA [CMAH]”: the percent infected came out at 94.7 ± 1.2% under setting [1]; 75.3 ± 1.9% under setting [2]; 95.1 ± 0.29% under setting [3]; 94.26 ± 0.25% under setting [4]; 93.1 ± 0.62% under setting [5]; 92.979 ± 0.089% under setting [6].
“MEKLLCFLVLTSLSHAFGQTDMSRKAFVFPKESDTSYVSLKAPLTKPLKAFTVCLHFYTELSSTRGYSIFSYATKRQDNEILIFWSKDIGYSFTVGGSEILFEVPEVTVAPVHICTSWESASGIVEFWVDGKPRVRKSLKKGYTVGAEASIILGQEQDSFGGNFEGSQSLVGDIGNVNMWDFVLSPDEINTIYLGGPFSPNVLNWRALKYEVQGEVFTKPQLWP [CRP]”: the percent infected by setting is: under setting [1], 94.7 ± 1.9%; under setting [2], 71.6 ± 4%; under setting [3], 95.07 ± 0.27%; under setting [4], 94.33 ± 0.72%; under setting [5], 89.4 ± 1.5%; under setting [6], 92.68 ± 0.15%.
Take “MFAKGKGSAVPSDGQAREKLALYVYEYLLHVGAQKSAQTFLSEIRWEKNITLGEPPGFLHSWWCVFWDLYCAAPERRDTCEHSSEAKAFHDYSAAAAPSPVLGNIPPNDGMPGGPIPPGFFQGPPGSQPSPHAQPPPHNPSSMMGPHSQPFMSPRYAGGPRPPIRMGNQPPGGVPGTQPLLPNSMDPTRQQGHPNMGGSMQRMNPPRGMGPMGPGPQNYGSGMRPPPNSLGPAMPGINMGPGAGRPWPNPNSANSIPYSSSSPGTYVGPPGGGGPPGTPIMPSPADSTNSSDNIYTMINPVPPGGSRSNFPMGPGSDGPMGGMGGMEPHHMNGSLGSGDIDGLPKNSPNNISGISNPPGTPRDDGELGGNFLHSFQNDNYSPSMTMSV [SSBP3]”: the percent infected is, setting by setting: under setting [1], 63.1 ± 3.4%; under setting [2], 3.95 ± 1.2%; under setting [3], 94.42 ± 0.81%; under setting [4], 95.08 ± 0.28%; under setting [5], 83.27 ± 0.48%; under setting [6], 54.1 ± 14%.
For the substance MAFF, the percent infected is 92.89 ± 0.73% under setting [1]; 70.1 ± 7.5% under setting [2]; 94.1 ± 0.95% under setting [3]; 93.98 ± 0.15% under setting [4]; 93.24 ± 0.65% under setting [5]; 91.23 ± 0.34% under setting [6].
